This is an account of results in article doi:10.1101/2024.01.29.577855.

For this assay, the target named is recombinant yeast TBC-DEG (TBCD, TBCE, Arl2) (yeast) (UniProt P40987). As to the kind of experiment: SEC. (SEC sorts molecules by how far they enter the pores of the column.)
Chain of recombinant yeast TBC-DEG (TBCD, TBCE, Arl2) (yeast) (P40987 whole entry, chain 1 of 3): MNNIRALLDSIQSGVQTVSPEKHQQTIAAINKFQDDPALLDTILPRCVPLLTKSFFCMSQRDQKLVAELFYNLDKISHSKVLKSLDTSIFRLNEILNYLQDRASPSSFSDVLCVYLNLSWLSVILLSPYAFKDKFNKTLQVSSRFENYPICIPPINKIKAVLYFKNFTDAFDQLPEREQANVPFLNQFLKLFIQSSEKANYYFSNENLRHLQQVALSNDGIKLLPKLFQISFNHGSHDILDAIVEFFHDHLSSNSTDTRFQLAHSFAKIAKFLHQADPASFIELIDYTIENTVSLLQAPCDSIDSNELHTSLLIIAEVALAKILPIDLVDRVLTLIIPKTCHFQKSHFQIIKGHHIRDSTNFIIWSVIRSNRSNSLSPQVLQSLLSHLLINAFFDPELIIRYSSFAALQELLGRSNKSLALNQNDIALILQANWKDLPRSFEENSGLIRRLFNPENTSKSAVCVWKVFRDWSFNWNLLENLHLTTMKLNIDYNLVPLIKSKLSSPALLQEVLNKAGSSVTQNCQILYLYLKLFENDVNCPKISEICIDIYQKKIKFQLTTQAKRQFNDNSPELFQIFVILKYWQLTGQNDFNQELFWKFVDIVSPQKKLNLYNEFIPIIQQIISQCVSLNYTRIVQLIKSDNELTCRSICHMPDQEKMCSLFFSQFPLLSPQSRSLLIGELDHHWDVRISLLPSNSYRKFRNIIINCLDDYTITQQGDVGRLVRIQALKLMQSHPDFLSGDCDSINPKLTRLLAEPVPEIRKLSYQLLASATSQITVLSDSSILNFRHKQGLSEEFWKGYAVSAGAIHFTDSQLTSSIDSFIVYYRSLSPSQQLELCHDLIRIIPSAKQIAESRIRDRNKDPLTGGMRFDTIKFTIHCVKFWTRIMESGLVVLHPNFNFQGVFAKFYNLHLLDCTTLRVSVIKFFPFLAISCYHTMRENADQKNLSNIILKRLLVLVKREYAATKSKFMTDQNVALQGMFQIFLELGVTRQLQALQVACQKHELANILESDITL
Chain of recombinant yeast TBC-DEG (TBCD, TBCE, Arl2) (yeast) (P39937 whole entry, chain 2 of 3, further chain): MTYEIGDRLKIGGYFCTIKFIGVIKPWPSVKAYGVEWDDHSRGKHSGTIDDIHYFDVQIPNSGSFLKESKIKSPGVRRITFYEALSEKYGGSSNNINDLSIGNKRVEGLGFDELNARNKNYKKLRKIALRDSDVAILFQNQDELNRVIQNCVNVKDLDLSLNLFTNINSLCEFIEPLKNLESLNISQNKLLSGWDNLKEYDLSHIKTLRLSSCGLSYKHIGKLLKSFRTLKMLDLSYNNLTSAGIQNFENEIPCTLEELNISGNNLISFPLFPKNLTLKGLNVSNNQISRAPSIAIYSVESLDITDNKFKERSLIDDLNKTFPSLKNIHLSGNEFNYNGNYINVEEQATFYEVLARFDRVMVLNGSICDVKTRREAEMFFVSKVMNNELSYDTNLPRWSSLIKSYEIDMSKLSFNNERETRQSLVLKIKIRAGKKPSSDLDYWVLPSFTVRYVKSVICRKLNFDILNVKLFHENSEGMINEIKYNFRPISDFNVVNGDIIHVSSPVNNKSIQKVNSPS
Chain of recombinant yeast TBC-DEG (TBCD, TBCE, Arl2) (yeast) (P39110 whole entry, chain 3 of 3, further chain): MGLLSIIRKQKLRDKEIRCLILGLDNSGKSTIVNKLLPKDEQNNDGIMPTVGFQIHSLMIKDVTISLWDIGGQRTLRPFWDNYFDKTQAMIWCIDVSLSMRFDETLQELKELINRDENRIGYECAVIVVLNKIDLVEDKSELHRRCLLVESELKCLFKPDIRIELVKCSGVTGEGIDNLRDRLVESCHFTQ

A word on the stoichiometry N: it is the number of molecules, sites or subunits per partner or assembly. For “porcine brain αβ-tubulin heterodimer (from UniProt P02550 1-451; P02554 1-445) (complex)”, the stoichiometry N came out at 1.
